# In US20260207704A1, “STAPLED PEPTIDES AND METHODS THEREOF” (priority 2022, published 2026):
# *1 amine or outer side, *2 acyl side, *3 side chain or, on linkers, in order; H or OH if unused. Bridges are numbered along the chain shown (N, C = ends). Primed or numbered codes have the meaning given here. [ ]: non-standard residue; d: D form. B5(4) = 2-amino-2-(pent-4-en-1-yl)hept-6-enoic acid, stapled through each of its two olefin groups with other olefin-containing amino acid residues, O=C(C(CCCC=[*:3])(CCCC=[*:4])N[*:1])[*:2]; PyrS2″ = (S)-3-amino-1-((pent-4-en-1-yloxy)carbonyl)pyrrolidine-3-carboxylic acid (olefin stapling residue), C=CCCCOC(=O)N1CC[C@@](N[*:1])(C(=O)[*:2])C1; PyrS2 = (S)-3-amino-1-((pent-4-en-1-yloxy)carbonyl)pyrrolidine-3-carboxylic acid, olefin staple residue, C=CCCCOC(=O)N1CC[C@@](N[*:1])(C(=O)[*:2])C1; PyrS2(5) = (S)-3-amino-1-((pent-4-en-1-yloxy)carbonyl)pyrrolidine-3-carboxylic acid, C=CCCCOC(=O)N1CC[C@@](N[*:1])(C(=O)[*:2])C1; B5(5) = 2-amino-2-(pent-4-en-1-yl)hept-6-enoic acid (two olefin arms), C=CCCCC(CCCC=C)(N[*:1])C(=O)[*:2]; 2F3MeF″ = aromatic residue, Cc1cccc(C[C@H](N[*:1])C(=O)[*:2])c1F; Phe(3-COOH) = N[C@@H](Cc1cccc(C(=O)O)c1)C(=O)O; 2F3MeF = Cc1cccc(C[C@H](N[*:1])C(=O)[*:2])c1F; Bta = N[C@@H](Cc1csc2ccccc12)C(=O)O; αAllylPro = C=CC[C@@]1(C(=O)O)CCCN1; tBuAla = CC(C)(C)C[C@H](N)C(=O)O; Gly(cBu) = N[C@H](C(=O)O)C1CCC1; 3Thi = N[C@@H](Cc1ccsc1)C(=O)O; BztA″ = aromatic residue; CyLeu = not defined here; Nle = CCCC[C@H](N)C(=O)O; TfeGA = not defined here; GlnR = not defined here; Cpg = not defined here; B5 = not defined here; Aib = CC(C)(N)C(=O)O
# What was measured:
# [1] = target: beta-catenin (human); assay: fluorescence polarization
# Sequence of beta-catenin (human) (B6V8E6 146-665 limits assumed): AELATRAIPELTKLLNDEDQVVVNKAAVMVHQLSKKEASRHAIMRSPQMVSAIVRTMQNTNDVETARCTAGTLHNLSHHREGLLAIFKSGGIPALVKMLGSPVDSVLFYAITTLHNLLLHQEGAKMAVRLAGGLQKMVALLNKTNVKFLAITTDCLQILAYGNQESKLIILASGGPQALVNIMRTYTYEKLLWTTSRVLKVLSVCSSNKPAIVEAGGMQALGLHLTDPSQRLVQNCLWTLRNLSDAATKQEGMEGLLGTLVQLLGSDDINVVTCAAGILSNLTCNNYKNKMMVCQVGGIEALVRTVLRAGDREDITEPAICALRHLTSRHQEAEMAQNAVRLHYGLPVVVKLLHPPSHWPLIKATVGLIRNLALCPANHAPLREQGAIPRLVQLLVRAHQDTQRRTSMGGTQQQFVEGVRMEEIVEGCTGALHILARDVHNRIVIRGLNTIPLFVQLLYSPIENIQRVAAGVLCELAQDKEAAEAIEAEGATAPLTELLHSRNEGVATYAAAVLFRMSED
# [2] = target: beta-catenin (human); assay: cell-based or functional assay
binder,measurement,setting,value
Ac-[αAllylPro]D[tBuAla][B5(4)]D[TfeGA]AAFK[PyrS2″][2F3MeF][Bta][GlnR][Aib]-NH2 (bridge 10-14; not fully specified (bridges); reading uncertain; also: Lys*3 and GlnR*3 marked *3) [I-126],IC50,[1],< 50 nM
same,NanoBRET Abs IC50 (bin >3.0 uM),[2],< 10000 nM
Ac-[αAllylPro]D[tBuAla][B5(4)]D[TfeGA]AAFK[PyrS2″][2F3MeF][Bta][GlnR][Aib]-NH2 (bridge 10-14; not fully specified (bridges); reading uncertain; also: Lys*3 and GlnR*3 marked *3) [I-127],IC50,[1],< 50 nM
same,NanoBRET Abs IC50 (bin >3.0 uM),[2],< 10000 nM
Ac-[αAllylPro]D[tBuAla][B5(4)]D[TfeGA]AAFK[PyrS2(5)][2F3MeF][Bta][GlnR]V-NH2 (bridge 10-14; not fully specified (bridges); reading uncertain; also: Lys*3 and GlnR*3 marked *3) [I-129],IC50,[1],< 50 nM
same,NanoBRET Abs IC50 (bin >3.0 uM),[2],< 10000 nM
Ac-[αAllylPro]DL[B5(5)]DDAAFK[PyrS2(5)][3Thi][Bta][GlnR]-NH2 (bridge 10-14; not fully specified (bridges); printed as Ac-PL3-Asp-Leu-B5-Asp-Asp-Ala-Ala-Phe-Lys*3-PyrS2-3Thi-BztA-GlnR*3-NH2; reading uncertain) [I-4],IC50,[1],< 50 nM
same,NanoBRET Abs IC50,[2],> 10000 nM
"Ac-[αAllylPro]D[tBuAla][B5]D[Phe(3-COOH)][GlnR](29N2spiroundecane)AFL[PyrS2][2F3MeF][Bta][GlnR]A-NH2 (staple 1-4, 4-11 (inferred); not fully specified; printed as Ac-PL3-Asp-Npg-B5-Asp-3COOHF-[29N2spiroundecane]GlnR-Ala-Phe-Leu-PyrS2-2F3MeF-BztA-GlnR-Ala-NH2; reading uncertain; also: staple C=C reduced to CH2-CH2) [I-135]",IC50,[1],> 1000 nM
same,NanoBRET Abs IC50,[2],> 10000 nM
Ac-[αAllylPro]D[tBuAla][B5]D[Phe(3-COOH)]AAFK[PyrS2″][2F3MeF″][BztA″][GlnR]LS-NH2 (bridge 10-14; not fully specified (bridges); printed as Ac-PL3-Asp-Npg-B5-Asp-3COOHF-Ala-Ala-Phe-Lys*3-PyrS2-2F3MeF-BztA-GlnR*3-Leu-Ser-NH2; reading uncertain; also: Lys10 and GlnR14 marked *3) [I-136],IC50,[1],< 50 nM
same,NanoBRET Abs IC50 (bin >1.5 uM),[2],< 3000 nM
Ac-[αAllylPro]D[tBuAla][B5]D[Phe(3-COOH)][Nle]AFK[PyrS2″][2F3MeF″][BztA″][GlnR]LS-NH2 (bridge 10-14; not fully specified (bridges); printed as Ac-PL3-Asp-Npg-B5-Asp-3COOHF-nLeu-Ala-Phe-Lys*3-PyrS2-2F3MeF-BztA-GlnR*3-Leu-Ser-NH2; reading uncertain; also: Lys10 and GlnR14 marked *3) [I-137],IC50,[1],< 50 nM
same,NanoBRET Abs IC50 (bin >1.5 uM),[2],< 3000 nM
Ac-[αAllylPro]D[tBuAla][B5]D[Phe(3-COOH)][Aib]AFK[PyrS2″][2F3MeF″][BztA″][GlnR]LS-NH2 (bridge 10-14; not fully specified (bridges); printed as Ac-PL3-Asp-Npg-B5-Asp-3COOHF-Aib-Ala-Phe-Lys*3-PyrS2-2F3MeF-BztA-GlnR*3-Leu-Ser-NH2; reading uncertain; also: Lys10 and GlnR14 marked *3) [I-138],IC50,[1],< 50 nM
same,NanoBRET Abs IC50 (bin >1.5 uM),[2],< 3000 nM
Ac-[αAllylPro]D[tBuAla][B5]D[Phe(3-COOH)][Cpg]AFK[PyrS2″][2F3MeF″][BztA″][GlnR]LS-NH2 (bridge 10-14; not fully specified (bridges); printed as Ac-PL3-Asp-Npg-B5-Asp-3COOHF-Cpg-Ala-Phe-Lys*3-PyrS2-2F3MeF-BztA-GlnR*3-Leu-Ser-NH2; reading uncertain; also: Lys10 and GlnR14 marked *3) [I-139],IC50,[1],< 50 nM
same,NanoBRET Abs IC50 (bin >1.5 uM),[2],< 3000 nM
Ac-[αAllylPro]D[tBuAla][B5]D[Phe(3-COOH)][Gly(cBu)]AFK[PyrS2″][2F3MeF″][BztA″][GlnR]LS-NH2 (bridge 10-14; not fully specified (bridges); printed as Ac-PL3-Asp-Npg-B5-Asp-3COOHF-Cbg-Ala-Phe-Lys*3-PyrS2-2F3MeF-BztA-GlnR*3-Leu-Ser-NH2; reading uncertain; also: Lys10 and GlnR14 marked *3) [I-140],IC50,[1],< 50 nM
same,NanoBRET Abs IC50,[2],< 1500 nM
Ac-[αAllylPro]D[tBuAla][B5]D[Phe(3-COOH)][CyLeu]AFK[PyrS2″][2F3MeF″][BztA″][GlnR]LS-NH2 (bridge 10-14; not fully specified (bridges); printed as Ac-PL3-Asp-Npg-B5-Asp-3COOHF-CyLeu-Ala-Phe-Lys*3-PyrS2-2F3MeF-BztA-GlnR*3-Leu-Ser-NH2; reading uncertain; also: Lys10 and GlnR14 marked *3) [I-141],IC50,[1],< 50 nM
same,NanoBRET Abs IC50 (bin >1.5 uM),[2],< 3000 nM
XDLXDDAAFQXXXK (not fully specified; Ac-PL3-Asp-Leu-B5-Asp-Asp-Ala-Ala-Phe-DGlnR*3-PyrS2-3Thi-BztA-Lys*3-NH2) [I-5],IC50,[1],< 50 nM
same,NanoBRET Abs IC50,[2],> 10000 nM
Ac-[αAllylPro]N[tBuAla][B5]D[Phe(3-COOH)][Aib]AFK[PyrS2″][2F3MeF″][BztA″][GlnR]LS-NH2 (bridge 10-14; not fully specified (bridges); printed as Ac-PL3-Asn-Npg-B5-Asp-3COOHF-Aib-Ala-Phe-Lys*3-PyrS2-2F3MeF-BztA-GlnR*3-Leu-Ser-NH2; reading uncertain; also: Lys10 and GlnR14 marked *3) [I-144],IC50,[1],< 50 nM
same,NanoBRET Abs IC50 (bin >3.0 uM),[2],< 10000 nM
Ac-[αAllylPro]E[tBuAla][B5(5)]E[Phe(3-COOH)][Aib]AFK[PyrS2(5)][3Thi][Bta][GlnR]A-NH2 (bridge 10-14; not fully specified (bridges); printed as Ac-PL3-Glu-Npg-B5-Glu-3COOHF-Aib-Ala-Phe-Lys*3-PyrS2-3Thi-BztA-GlnR*3-Ala-NH2; reading uncertain) [I-470],IC50,[1],> 1000 nM
same,NanoBRET Abs IC50,[2],> 10000 nM
XDLXDDAAFQXXXK (not fully specified; Ac-PL3-Asp-Leu-B5-Asp-Asp-Ala-Ala-Phe-GlnR*3-PyrS2-3Thi-BztA-Lys*3-NH2) [I-6],IC50,[1],< 50 nM
same,NanoBRET Abs IC50,[2],> 10000 nM
